Experimental data published in paper PMC6471057.
Where two headings read alike, the source gives them in different places.

Columns and labels:
[1] = target: HLA-E*01:01 on T2E cells (human | human (endogenous in T2)); experiment: flow cytometry on cells; peptide stabilization on T2E cells (peptide 18 h at 37 °C), washed, without Brefeldin A; HLA-E surface level (mAb 3D12) at 0, 2, 4 and 6 h at 37 °C
[2] = target: HLA-E*01:01 on T2E cells (human | human (endogenous in T2)); experiment: flow cytometry on cells; peptide stabilization on T2E cells (peptide 18 h at 37 °C), then 1 h with Brefeldin A 10 µg/mL, washed; HLA-E surface level (mAb 3D12) at 0, 2, 4 and 6 h at 37 °C; decrease taken as dissociation of the peptide from HLA-E
[3] = target: HLA-E*01:01 on T2E cells (human | human (endogenous in T2)); experiment: as above; remark: listed apart in the source

Binder | DT50 (without Brefeldin A) [1] [h] | DT50 (incubation time for 50% of the p:HLA-E complexes to decay, with Brefeldin A) [2] [h] | reduction in HLA-E surface expression after 6 h [3] [%] | DT50 (incubation time for 50% of the p:HLA-E complexes to decay, with Brefeldin A) [3] [h]
DVHDGKVVSTHEQ [DQ13 peptide] | > 6 | > 6 | 1.5 | 
LVDSGAQVSVVHPNL [LNL15 peptide] | > 6 | > 4 |  | < 6
LGHPDTLNQGEFKEL [LEL15 peptide] | > 6 | > 6 |  | 
SKGKIYPVGY [SY10 peptide] | > 6 | > 6 |  | 
VMAPRTLIL [VIL9 peptide] | > 6 | > 6 | 23 | 
